Paper PMC8455617 (2021)
Where “and” joins values, the source holds several entries; their conditions need not be identical. Equal values may be shown once. Values belong to the molecule of their own block, whether it stands above or below them.

How the values were obtained:
[1] = molecular target: Mitochondrial citrate synthase (CS) (UniProt P00889); assay: Microscale thermophoresis (MST), Monolith NT.115, nano-red excitation, MST power 40%, excitation power 80%; settings: 23 °C, 0.1 M potassium phosphate, no further salt stated, 0.1 M potassium phosphate at pH 6, 7 or 8 (the same buffer species at all pH values)
[2] = molecular target: T1, citrate synthase, mitochondrial (Sus scrofa, UniProt P00889); assay: MST
T1 chain: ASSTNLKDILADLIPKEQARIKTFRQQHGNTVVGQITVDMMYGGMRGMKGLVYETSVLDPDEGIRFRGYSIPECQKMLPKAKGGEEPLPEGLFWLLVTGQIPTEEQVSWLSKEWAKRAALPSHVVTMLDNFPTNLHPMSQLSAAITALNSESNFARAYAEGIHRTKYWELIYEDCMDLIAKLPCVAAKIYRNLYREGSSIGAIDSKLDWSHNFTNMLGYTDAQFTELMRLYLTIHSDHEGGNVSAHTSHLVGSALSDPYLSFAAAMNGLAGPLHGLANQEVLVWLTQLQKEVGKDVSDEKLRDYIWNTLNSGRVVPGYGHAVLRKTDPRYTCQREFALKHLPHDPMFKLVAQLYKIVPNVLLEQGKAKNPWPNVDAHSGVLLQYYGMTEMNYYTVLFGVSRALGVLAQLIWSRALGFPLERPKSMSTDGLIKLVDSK

[3] = molecular target: T1, citrate synthase, mitochondrial; assay: MST (pH 7)
[4] = molecular target: T1, citrate synthase, mitochondrial; assay: MST (pH 6)

Molecule: Mitochondrial malate dehydrogenase (MDH), fluorescently labelled
Kd ([1]; pH 6): 0.68 ± 0.05 µM
Kd ([1]; pH 7): 1.60 ± 0.45 µM
Kd ([1]; pH 8): 2.29 ± 0.46 µM

B1: malate dehydrogenase, mitochondrial (protein)
chain: AKVAVLGASGGIGQPLSLLLKNSPLVSRLTLYDIAHTPGVAADLSHIETRATVKGYLGPEQLPDCLKGCDVVVIPAGVPRKPGMTRDDLFNTNATIVATLTAACAQHCPDAMICIISNPVNSTIPITAEVFKKHGVYNPNKIFGVTTLDIVRANAFVAELKGLDPARVSVPVIGGHAGKTIIPLISQCTPKVDFPQDQLSTLTGRIQEAGTEVVKAKAGAGSATLSMAYAGARFVFSLVDAMNGKEGVVECSFVKSQETDCPYFSTPLLLGKKGIEKNLGIGKISPFEEKMIAEAIPELKASIKKGEEFVKNMK
modifications: 10 mM succinyl-CoA
Kd [2]: 1.97 µM

B2: malate dehydrogenase, mitochondrial (protein)
chain: B1 chain
modifications: 10 mM oxaloacetate and NADH
Kd [2]: 2.01 µM

B6: malate dehydrogenase, mitochondrial (protein)
chain: B1 chain
modifications: 10 mM fumarate
Kd [2]: 1.58 µM

B7: malate dehydrogenase, mitochondrial (protein)
chain: B1 chain
modifications: 10 mM malate
Kd [2]: 1.85 µM and 1.8 µM

B8: malate dehydrogenase, mitochondrial (protein)
chain: B1 chain
modifications: 5 mM ATP
Kd [2]: 0.77 µM

B9: malate dehydrogenase, mitochondrial (protein)
chain: B1 chain
modifications: 10 mM CoA
Kd [2]: 2.32 µM

B11: malate dehydrogenase, mitochondrial (protein)
chain: B1 chain
Kd [3]: 1.6 µM
Kd [2]: 2.29 µM
Kd [4]: 0.68 µM

B12: malate dehydrogenase, mitochondrial (protein)
chain: B1 chain
modifications: 10 mM ADP
Kd [2]: 2.24 µM

B13: malate dehydrogenase, mitochondrial (protein)
chain: B1 chain
modifications: 10 mM AMP
Kd [2]: 3.1 µM

B15: malate dehydrogenase, mitochondrial (protein)
chain: B1 chain
modifications: 10 mM oxaloacetate and acetyl-CoA
Kd [2]: 0.52 µM

B16: malate dehydrogenase, mitochondrial (protein)
chain: B1 chain
modifications: 10 mM ATP
Kd [2]: 0.76 µM and 0.46 µM

B20: malate dehydrogenase, mitochondrial (protein)
chain: B1 chain
modifications: 10 mM acetyl-CoA
Kd [2]: 1.1 µM

Continued by falling Kd [2], values first:

Kd [2]: 25.1 µM
B10: malate dehydrogenase, mitochondrial (protein)
chain: B1 chain
modifications: 10 mM citrate

Kd [2]: 7.5 µM
B19: malate dehydrogenase, mitochondrial (protein)
chain: B1 chain
modifications: 10 mM NADH

Kd [2]: 2.23 µM
B4: malate dehydrogenase, mitochondrial (protein)
chain: B1 chain
modifications: 10 mM oxaloacetate

Kd [2]: 1.14 µM
B3: malate dehydrogenase, mitochondrial (protein)
chain: B1 chain
modifications: 10 mM alpha-ketoglutarate

Kd [2]: 1.06 µM
B14: malate dehydrogenase, mitochondrial (protein)
chain: B1 chain
modifications: 1.25 mM ATP

Kd [2]: 0.89 µM
B5: malate dehydrogenase, mitochondrial (protein)
chain: B1 chain
modifications: 10 mM NAD+

Kd [2]: 0.72 µM
B17: malate dehydrogenase, mitochondrial (protein)
chain: B1 chain
modifications: 20 mM ATP

Kd [2]: 0.18 µM
B18: malate dehydrogenase, mitochondrial (protein)
chain: B1 chain
modifications: 10 mM succinate
